Experimental findings from publication doi:10.1101/416032 are described below.

The target in this assay is BG505.SOSIP.664-AviB (HIV-1 (clade A, BG505)) (UniProt Q2N0S6). Kind of assay: BLI.

A value given as a limit tells only on which side of the number the result lay.

As a reminder, the Kd is the free concentration of one partner at which half of the binding sites on the other are occupied at equilibrium, for simple one-to-one binding. Read a high Kd as a looser complex.

BF520.1 matureVHnaïveVK mAb (antibody) came in with a Kd of 8.95 nM.

Consider BF520.1 naïveVHmatureVK mAb (antibody), for which the equilibrium dissociation constant (Kd) is below 0.001 nM.
